Assays:
[1] = biological target: adenylate kinase 2 (AK2), recombinant human (human, UniProt P54819 1-239); assay: SEC
[2] = biological target: the molecule itself; assay: SEC

B1: AIFM1 ΔR201 (disease-related variant) (domain or fragment)
chain: LGLTPEQKQKKAALSASEGEEVPQDKAPSHVPFLLIGGGTAAFAAARSIRARDPGARVLIVSEDPELPYMRPPLSKELWFSDDPNVTKTLRFKQWNGKESIYFQPPSFYVSAQDLPHIENGGVAVLTGKKVVQLDVRDNMVKLNDGSQITYEKCLIATGGTPRSLSAIDRAGAEVKSRTTLFRKIGDFRSLEKISREVKSITIIGGGFLGSELACALGRKARALGTEVIQLFPEKGNMGKILPEYLSNWTMEKVRREGVKVMPNAIVQSVGVSSGKLLIKLKDGRKVETDHIVAAVGLEPNVELAKTGGLEIDSDFGGFRVNAELQARSNIWVAGDAACFYDIKLGRRRVEHHDHAVVSGRLAGENMTGAAKPYWHQSMFWSDLGPDVGYEAIGLVDSSLPTVGVFAKATAQDNPKSATEQSGTGIRSESETESEASEITIPPSTPAVPQAPVQGEDYGKGVIFYLRDKVVVGIVLWNIFNRMPIARKIIKDGEQHEDLNEVAKLFNIHED
B1 was tested, and the binding result [1] was “binds” and the “stoichiometry N” value [2] was 2.

Reference: paper doi:10.1101/2024.08.22.609182 (bioRxiv, 2024)
